± gives the standard deviation.
Test: protein stability index of a GFP-peptide fusion (GPS, HEK-293T) (PSI 1-6); higher = more stable
Settings: c terminus: a fixed tail appended
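Further: 24-mer peptide tiles fused after GFP, lentivirally expressed, FACS-sorted into six equal bins by GFP/DsRed ratio, decoded by Illumina sequencing, PSI is the read-weighted mean bin number.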

| Sequence | protein stability index (treatment: DMSO) | protein stability index (treatment: MLN4924 1 uM, 8 h) |
| --- | --- | --- |
| ESPSFLSLRKGASLSNGQGSRVLH [NCK2] | 3.83 ± 0.27 | 3.92 ± 0.16 |
| QPIHLWQFLKELLLKPHSYGRFIR [SPDEF] | 2.69 ± 0.13 | 2.65 ± 0.19 |
| QHKCDECGKSFTQSSGLIRHQRIH [ZSCAN9] | 5.26 ± 0.19 | 5.28 ± 0.12 |
| ETFAFQAEIAQLMSLIINTFYSNK [HSP90AB1] | 2.84 ± 0.66 | 2.63 ± 0.54 |
| VEGRHLYVLEFSDHPGIHEPLEPE [CPN1] | 3.04 ± 0.23 | 3.28 ± 0.33 |
| QADTVHSNPELDVLLLGSVDGRHL [DNAAF3] | 3.77 ± 0.4 | 4 ± 0.3 |
| SEEIRFYQLGEEAMEKFREDEGFL [KCNA3] | 4.37 ± 0.27 | 4.44 ± 0.12 |
| ACYAGAAPAPSQVKSKAKKTVDKH [CEBPB] | 4.95 ± 0.33 | 5.09 ± 0.39 |
| EADGSTNNGIFQINSRRWCSNLTP [SPACA3] | 3.43 ± 0.33 | 3.66 ± 0.32 |
| GLAKEYIDPETKKHIPYREHKSLT [CSNK1G3] | 4.21 ± 0.22 | 4.2 ± 0.13 |
| PYPASKADIPSVAFSSRLGGSRGA [DCAF4] | 3.71 ± 0.22 | 3.8 ± 0.41 |
| KCEQPFFWNIKQMWDTKTLGLRQH [WDFY1] | 2.12 ± 0.17 | 2.38 ± 0.27 |
| YWPLEKDSRIRFGFLTVTNLGVEN [PTPN9] | 2.47 ± 0.36 | 2.43 ± 0.4 |
| KSSGRFLWIKFFAAGELESMGFSA [NETO1] | 2.59 ± 0.54 | 2.64 ± 0.73 |
| RTPLMYCVLADRLDCADALLKAGA [INVS] | 2.16 ± 0.35 | 2.08 ± 0.15 |
| LSDREVVNLFLHFTVNPKPRVEYI [BTBD1] | 2.98 ± 0.73 | 2.5 ± 0.26 |
| LLLLYFMQVIAIVLYLMMPIVNIS [PHTF1] | 3.15 ± 0.42 | 3.06 ± 0.52 |
| LNKKLKSYSLSRKKIVHYTCFDQR [CDC14A] | 2.39 ± 0.26 | 2.35 ± 0.3 |

| Sequence | protein stability index (treatment: DMSO) | protein stability index (treatment: MLN4924 1 uM, 8 h) |
| --- | --- | --- |
| KKTSITQQPSKHRTDEELQPPTTT [PLK2] | 5.27 ± 0.2 | 5.26 ± 0.16 |
| LSEKEINAREESLVEELSPASEKK [BCL2L13] | 5.42 ± 0.46 | 5.58 ± 0.15 |
| RYQHGIAVIGNFLYVVGGQSNYDT [KLHL13] | 2.42 ± 0.49 | 2.44 ± 0.5 |
| LGQQQRDMRRDEEGSLCAAHLPKA [FBF1] | 4.97 ± 0.35 | 5.11 ± 0.16 |
| LVAEVPKEHWTPEGHSIVGFAMYY [SAT1] | 2.81 ± 0.58 | 2.57 ± 0.39 |
| CWKMLSPGFDSSVYSDLCEAAEAV [ADAMTSL2] | 2.69 ± 0.34 | 3.16 ± 0.71 |
| WHDVQVSSAYVKTSEKLGEWNEKV [TPD52L2] | 3.64 ± 0.26 | 3.8 ± 0.24 |
| RLSSRYRYGQLIEINSHSLFSKWF [TRIP13] | 2.12 ± 0.28 | 2.04 ± 0.38 |
| ALLWLSCSIALLRALATSNARAQQ [GNAS] | 3.21 ± 0.51 | 2.99 ± 0.25 |
| RPPLRRVRMSADAMLKALLGSKHK [TNNI2] | 3.01 ± 0.28 | 3.21 ± 0.29 |
| SKSGYLRYSCESRIRSYLREVSSY [DFFB] | 2.1 ± 0.17 | 2.34 ± 0.37 |
| LMADKVLRWERAWFPPAIMGVVSL [ARL6IP1] | 3.13 ± 0.66 | 2.45 ± 0.86 |
| PPIPILELADHIERLKANDNLKFS [PTPRD] | 3.56 ± 0.19 | 3.32 ± 0.2 |
| EKKKGKAKKKRLTKADIGTPSNFQ [WASL] | 4.62 ± 0.099 | 4.63 ± 0.062 |
| LETFGHLLSIGPELPKPEVISQLE [ZNF8] | 3.94 ± 0.38 | 3.93 ± 0.19 |
| SAARVVLTSLLACLPAGPRVYFLK [DUSP5] | 2.43 ± 0.23 | 2.41 ± 0.12 |
| ATRGVPAKRLLDADDAAAVAAKCP [TRIB1] | 4.39 ± 1.5 | – |
| PARAPPEPPHNLFCAPGSWEWNEL [SERTAD3] | 3.36 ± 0.3 | 3.32 ± 0.32 |

Source: the supplement of paper PMC10567573
